Test [1] addresses T1, human CD16A-158F expressed on CHO-K1 cells (human, UniProt P08637 17-254).
T1 construct: whole, on cells
Kind of test: flow cytometry, CHO-K1-hCD16A-158F cells, geometric mean.

Test [2] concerns the target T2, human GPC3 on HepG2 cells (human, UniProt P51654 25-554).
T2 construct: whole, on cells; also called GPC3-positive HepG2 cells
Kind of test: flow cytometry, HepG2 cells (GPC3 positive), geometric mean. Background: In flow cytometry, cells or beads pass a laser one at a time.

For test [3], the target named is T3, human CD16A-158V expressed on CHO-K1 cells (human, UniProt P08637 17-254).
T3 construct: whole, on cells; also called hCD16A-158V; CHO-K1-hCD16A-158V
The test is described as follows: flow cytometry, CHO-K1-hCD16A-158V cells, geometric mean.

Test [4] addresses T4, hCD16A-158F-his protein (human, UniProt P08637 17-208).
T4 construct: Bought protein
Kind of test: SPR (Biacore 8K), antibody captured on Protein A chip, antigen at 50 nM. The procedure: (§1) The binding affinity of the chimeric antibodies to human CD16A was determined with Biacore™. Briefly, the antibodies were captured with a Protein A chip. […] The antigen was allowed to dissociate for 500 s. The experiment was carried out on a Biacore™ 8K. Data analysis was carried out using Biacore™ 8K evaluation software.
On the technique in general: SPR reads the build-up and loss of mass on a sensor chip optically.

Test [5] deals with T5, hCD16A-158V-his protein (human, UniProt P08637 17-208).
T5 construct: extracellular domain; Bought protein; also called human CD16A-158V-his; Human CD16A-158V (protein)
Described as above. How it is done: as §1

The target in test [6] is T4, hCD16A-158F-his protein. Kind of test: ELISA, plate-coated his-tagged antigen 2 ug/mL. The procedure:
(§2) In order to determine the binding ability of the chimeric Abs to human CD16A protein, ELISA-based binding assay was performed as followed. […] The mixture was incubated for 1 hour at room temperature (RT). The primary antibody was recognized by a detective antibody against human IgG Fc which was conjugated with horseradish peroxidase (HRP) (Jackson Immuno, Cat. No. 109-035-008). Tetramethylbenzidine (TMB), a substrate of HRP, was added to the wells to visualize the binding signal. After sufficient color development, stop solution was added to the wells. The absorbance of the signal was detected at 450 nm with Envision multilabel plate readers (PerkinElemer). The graph and statistics analysis were generated with four-parameter nonlinear regression curve fit in Graphpad Prism 9 software.
(§3) In order to determine the cross reactivity of the chimeric Abs to cynomolgus CD16, ELISA binding assay was performed as described above. Recombinant cyno CD16 ECD his tag protein (cynoCD16-his, Acro Bio, Cat. No. FC6-C52H9) was used as the coating antigen at 2 μg/mL.
A general note: An ELISA detects its analyte on a solid surface through an enzyme-linked reagent.

In test [7] the target is T5, hCD16A-158V-his protein. The test is described as follows: ELISA, plate-coated his-tagged antigen 2 ug/mL. How it is done: as §2, §3
Test [8] addresses T6, human CD16B-NA1 ECD his tag protein (human, UniProt O75015 17-200).
T6 construct: extracellular domain; Bought protein; also called hCD16B-NA1-his; hCD16B-NA1 protein
Kind of test: ELISA, hCD16B-NA1-his coated at 2 ug/mL, OD450. How it is done: as §2
(§4) In order to determine the binding ability of the chimeric Abs to human CD16B protein, ELISA binding assay was performed as previously described. Three spliced isoforms of CD16B including human CD16B-NA1 ECD his tag protein (hCD16B-NA1-his, Acro Bio, Cat: No. CDB-H5227), human CD16B-NA2 ECD his tag protein (hCD16B-NA2-his, Acro Bio, Cat: No. CDB-H82Ea) and human CD16B-SH-his protein, were used as the coating antigens at 2 μg/mL.

For test [9], the target named is T7, human CD16B-NA1 expressed on CHO-K1 cells (human, UniProt O75015 17-200).
T7 construct: whole, on cells; also called hCD16B-NA1; CHO-K1-hCD16B-NA1
Kind of test: flow cytometry, CHO-K1-hCD16B-NA1 cells, geometric mean. The procedure:
(§5) In order to evaluate the binding activity of the chimeric mAbs to human CD16A expressed on cells, cell-based binding assay was employed as followed. […] The antibody dilutions were incubated with 1×10⁵ indicated cells in the 96-well microplate for one hour at 4° C. The antibodies binding to the antigen on the cell surface were detected with PE fluorophore-conjugated anti-human IgG Fc secondary antibodies (ThermoFisher scientific, Cat. No. 12-4998-82) at a dilution rate of 1:1000. Cells were analyzed by flow cytometer LSRFortessa Cell Analyzer (BD Biosciences). Data were analyzed with Flowjo 10.0 software. The graph and statistics analysis were generated with four-parameter nonlinear regression curve fit in Graphpad Prism 9 software.
(§6) To exclude the non-specific binding of the CD16A chimeric antibody to human CD16B and CD32B expressed on cells, cell-based binding assay was performed as described above. Firstly, CHO-K1 cells were stably transferred with one human CD16B spliced isoform hCD16B-NA1 and human CD32B. Then, the cells were incubated with the indicated concentrations of CD16A chimeric antibodies.

The target of test [10] is T3, human CD16A-158V expressed on CHO-K1 …. Kind of test: flow cytometry on antigen-expressing CHO-K1 cells. The procedure: as §5
(§7) CHO-K1 cells stably expressing cynomolgus CD16 were used in the following test.

In test [11] the target is T1, human CD16A-158F expressed on CHO-K1 …. Kind of test: flow cytometry on antigen-expressing CHO-K1 cells. The procedure: as §5, §7
Test [12] addresses T8, human CD32B expressed on CHO-K1 cells (human, UniProt P31994 43-310).
T8 construct: whole, on cells; also called hCD32B
T8 sequence (looked up): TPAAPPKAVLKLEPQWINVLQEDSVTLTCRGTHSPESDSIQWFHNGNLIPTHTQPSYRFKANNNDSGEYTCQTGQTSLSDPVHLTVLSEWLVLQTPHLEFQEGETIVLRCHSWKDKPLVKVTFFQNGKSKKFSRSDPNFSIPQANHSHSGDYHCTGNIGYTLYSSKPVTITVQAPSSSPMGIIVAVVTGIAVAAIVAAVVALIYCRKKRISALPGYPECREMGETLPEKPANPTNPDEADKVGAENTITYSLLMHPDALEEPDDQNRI
The test is described as follows: flow cytometry, CHO-K1-hCD32B cells, geometric mean. How it is done: as §5, §6

The target in test [13] is T9, human CD16B-NA2 ECD his tag protein (human, UniProt O75015 17-200).
T9 construct: extracellular domain; Bought protein; also called hCD16B-NA2-his; hCD16B-NA2 protein
Kind of test: ELISA, hCD16B-NA2-his coated at 2 ug/mL, OD450. The procedure: as §2, §4

Substitutions are numbered along the chain they refer to.

T5 sequence (P08637 17-208 F176V): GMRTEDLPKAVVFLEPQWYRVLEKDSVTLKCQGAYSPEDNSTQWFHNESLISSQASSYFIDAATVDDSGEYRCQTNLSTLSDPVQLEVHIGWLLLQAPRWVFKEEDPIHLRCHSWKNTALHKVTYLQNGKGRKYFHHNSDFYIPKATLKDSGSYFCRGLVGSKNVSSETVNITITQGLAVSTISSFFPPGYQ
T3 sequence (P08637 17-254 F176V): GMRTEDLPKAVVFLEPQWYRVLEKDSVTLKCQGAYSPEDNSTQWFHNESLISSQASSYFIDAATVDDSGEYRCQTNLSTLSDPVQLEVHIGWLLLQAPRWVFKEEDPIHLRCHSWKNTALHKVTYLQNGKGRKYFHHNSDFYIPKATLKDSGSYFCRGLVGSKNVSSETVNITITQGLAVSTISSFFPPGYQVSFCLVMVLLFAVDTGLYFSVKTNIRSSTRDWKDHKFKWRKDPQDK
T1 sequence (P08637 17-254): as the sequence (P08637 17-254 F176V) above, with V160F counted along it
T4 sequence (P08637 17-208 limits assumed): as the sequence (P08637 17-208 F176V) above, with V160F counted along it
T2 sequence (P51654 25-554 limits assumed): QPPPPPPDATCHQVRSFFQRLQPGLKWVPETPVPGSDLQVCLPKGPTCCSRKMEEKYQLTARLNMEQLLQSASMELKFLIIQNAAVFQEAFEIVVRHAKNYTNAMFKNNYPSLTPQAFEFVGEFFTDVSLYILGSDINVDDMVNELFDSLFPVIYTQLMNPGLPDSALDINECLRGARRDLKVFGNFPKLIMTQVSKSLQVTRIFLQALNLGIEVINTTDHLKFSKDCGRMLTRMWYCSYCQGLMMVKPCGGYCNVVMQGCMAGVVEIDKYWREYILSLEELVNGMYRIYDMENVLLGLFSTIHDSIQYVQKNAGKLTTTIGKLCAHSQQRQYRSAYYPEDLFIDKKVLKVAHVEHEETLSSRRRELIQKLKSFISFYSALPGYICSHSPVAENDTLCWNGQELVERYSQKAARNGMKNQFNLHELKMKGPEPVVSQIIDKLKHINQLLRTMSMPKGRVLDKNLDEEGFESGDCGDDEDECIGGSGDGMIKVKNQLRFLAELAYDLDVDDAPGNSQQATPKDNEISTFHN
T9 sequence (O75015 17-200 N65S limits assumed): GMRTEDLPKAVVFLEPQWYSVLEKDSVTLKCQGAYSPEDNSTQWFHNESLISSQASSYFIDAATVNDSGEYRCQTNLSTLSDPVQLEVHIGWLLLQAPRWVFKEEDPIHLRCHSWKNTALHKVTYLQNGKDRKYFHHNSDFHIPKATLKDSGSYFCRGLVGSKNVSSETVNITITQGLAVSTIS
T7 sequence (O75015 other isoform, or with tags, fused parts or gaps): as the sequence (O75015 17-200 N65S limits assumed) above, with S20R, S49N, N66D, I90V counted along it
T6 sequence (O75015 other isoform, or with tags, fused parts or gaps limits assumed): as the sequence (O75015 17-200 N65S limits assumed) above, with S20R, S49N, N66D, I90V counted along it

B1: GPC3-45H6E8-z19p1-hIgG1LALAPG (bispecific antibody)
heavy chain (anti-GPC3 heavy chain hIgG1 LALAPG, (G4S)4 linker, 45H6E8-z19p1 scFv): QVQLVQSGAEVKKPGASVKVSCKASGYTFTDYEMHWVRQAPGQGLEWMGAIHPGSGGTAYNQKFKGRVTMTRDTSTSTVYMELSSLRSEDTAVYYCARYYSYAYWGQGTLVTVSSASTKGPSVFPLAPSSKSTSGGTAALGCLVKDYFPEPVTVSWNSGALTSGVHTFPAVLQSSGLYSLSSVVTVPSSSLGTQTYICNVNHKPSNTKVDKKVEPKSCDKTHTCPPCPAPEAAGGPSVFLFPPKPKDTLMISRTPEVTCVVVDVSHEDPEVKFNWYVDGVEVHNAKTKPREEQYNSTYRVVSVLTVLHQDWLNGKEYKCKVSNKALGAPIEKTISKAKGQPREPQVYTLPPSREEMTKNQVSLTCLVKGFYPSDIAVEWESNGQPENNYKTTPPVLDSDGSFFLYSKLTVDKSRWQQGNVFSCSVMHEALHNHYTQKSLSLSPGKGGGGSGGGGSGGGGSGGGGSQVQLVQSGAEVKKPGASVKVSCKVSGYTLTDYYMQWVRQAPGKGLEWIGWIDPEQGDTEYAPKFQGRVTMTADTSTDTAYMELSSLRSEDTAVYYCTTGGNYVDWGQGTTVTVSSGGGGSGGGGSGGGGSDIQMTQSPSFLSASVGDRVTITCKASQNVGTAVAWYQQKPGKAPKLLIYSASNRYTGVPDRFSGSGSGTDFTLTISSLQPEDFATYFCQQYSSYPLLTFGQGTRLEIK
light chain: DIVMTQTPLSLSVTPGQPASISCRSSQSLVHSNGNTYLQWYLQKPGQSPQLLIYKVSNRFSGVPDRFSGSGSGTDFTLKISRVEAEDVGVYYCFQSIHVPYTFGGGTKLEIKRTVAAPSVFIFPPSDEQLKSGTASVVCLLNNFYPREAKVQWKVDNALQSGNSQESVTEQDSKDSTYSLSSTLTLSKADYEKHKVYACEVTHQGLSSPVTKSFNRGEC
What is called EC50 (read off the curve) is the midpoint of the concentration-response curve. As for B1, the half-maximal effective concentration (EC50 (read off the curve)) in test [1] was around 2 nM; in [2], around 0.3 nM; in test [3], around 1 nM.

B2: GPC3-45H6E8-z21p1-hIgG1LALAPG (bispecific antibody)
heavy chain (anti-GPC3 heavy chain hIgG1 LALAPG, (G4S)4 linker, 45H6E8-z21p1 scFv): B1 heavy chain (anti-GPC3 heavy chain hIgG1 LALAPG, (G4S)4 linker, 45H6E8-z19p1 scFv) with I513M
light chain: B1 light chain
With B2, the “EC50 (read off the curve)” value in test [1] is around 2 nM; in test [2], around 0.3 nM; in test [3], around 1 nM.

B3: 91A11D11-hIgG1 LALAPG (antibody)
heavy: QVQLQQPGAELVRPGTSVKLSCKASGYTFTSYWMNWVKQRPGQGLEWIGMIDPSDSETHYNQMFKDKATLTVDESSSTAYMQLSSLTSEDSAVYFCARWTLVVAHFFDYWGQGTTLTVSSASTKGPSVFPLAPSSKSTSGGTAALGCLVKDYFPEPVTVSWNSGALTSGVHTFPAVLQSSGLYSLSSVVTVPSSSLGTQTYICNVNHKPSNTKVDKKVEPKSCDKTHTCPPCPAPEAAGGPSVFLFPPKPKDTLMISRTPEVTCVVVDVSHEDPEVKFNWYVDGVEVHNAKTKPREEQYNSTYRVVSVLTVLHQDWLNGKEYKCKVSNKALGAPIEKTISKAKGQPREPQVYTLPPSREEMTKNQVSLTCLVKGFYPSDIAVEWESNGQPENNYKTTPPVLDSDGSFFLYSKLTVDKSRWQQGNVFSCSVMHEALHNHYTQKSLSLSPGK
light: DIVLTQSPASLAVSLGQRATISCRASETVEYYGPSLLQWYQQKPGQPPKLLIYGASNVESGVPARFSGSGSGTDFSLNIHPVEEDDVAMYFCQQSRKVPYTFGGGTKLEIKRTVAAPSVFIFPPSDEQLKSGTASVVCLLNNFYPREAKVQWKVDNALQSGNSQESVTEQDSKDSTYSLSSTLTLSKADYEKHKVYACEVTHQGLSSPVTKSFNRGEC
notes: also called 91A11D11 chimeric Ab
One may read the Kd as the concentration at which binding is half-saturated. Low values mean higher affinity, high ones lower affinity. As usually defined, the koff is the first-order rate constant of dissociation. Read a low koff as slow dissociation. A word on the kon: it is the rate constant with which the complex forms. Read a high kon as faster complex formation. What is called EC50 is the concentration giving half of the maximal effect. Low readings indicate greater potency, high ones weaker potency. Regarding B3, the figures for the dissociation constant (Kd) with hCD16A-158F-his protein [4] and in the test with hCD16A-158V-his protein [5] were 0.138 nM and 0.223 nM, respectively. In addition, the off-rate (koff) with hCD16A-158F-his protein [4] worked out at 0.00102 s⁻¹; with hCD16A-158V-his protein [5], 0.00142 s⁻¹. The kon is 7.39e+06 M⁻¹ s⁻¹ with hCD16A-158F-his protein [4] and 6.93e+06 M⁻¹ s⁻¹ in the test with hCD16A-158V-his protein [5]. In addition, the 50% effective concentration (EC50) with hCD16A-158F-his protein [6] was found to be 0.41 nM; with hCD16A-158V-his protein [7], 0.12 nM; in [10], 0.45 nM; in [11], 0.46 nM. Further, the binding result in test [8] is recorded as “no binding (tested: 20 nM)”; in test [9], “no binding (tested: 100 nM)”; in test [12] it was “no binding (tested: 100 nM)”; in test [13], “no binding (tested: 20 nM)”.
